Results taken from the nanobody polyreactivity screen of Harvey et al. (2022).

Experiment: yeast display, Sf9 membrane polyspecificity reagent, FACS + sequencing; frameworks hold sequencing errors
Procedure, shortened: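 Galactose-induced (36–48 hours) yeast carrying a synthetic nanobody display library were exposed to 10% biotinylated, detergent-solubilized Sf9 membrane reagent at 4 °C for 1 hour. FACS followed streptavidin microbead enrichment, using low and high (top ~1%) gates for expression (anti-HA) and reagent binding (streptavidin). Colony PCR, MiSeq 2 × 250 sequencing and CDR-length filtering followed. Labels for polyreactivity reflect the gate of origin.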

## QVQLVESGGGLVQAGGSLRLSCAASGSILYSYTMGWYRQAPGKERELVAAINRGGRTNYADSVKGRFTISRDNAKNTVYLQMNSLKPEDTAVYYCNTGIYAWSWRRAMDYWGQGTQVTVSS
  polyreactivity (PSR sort gate): high polyreactivity

## QVQLVESVGCLVQAGGSLRLSCASTGRTFTPYAMGWYRHRPGKESEFVPAIDTSGGSTYADSVKGRFTISRDNANNTVYLQMNSLKPEDTAVYYCATRGFYSWSYWYLWEYDYWGQGTQVTVSS
  polyreactivity (PSR sort gate): low polyreactivity

## QVQLVESGGGLVQAGGSLRLSCAASGRIFVVYAMGWYRQAPGKERELVAAITRSGGRTFYAASVKGRFTISRDNATNTVYLQMYSQKPEDTAVYYCNKVDRFYLRLVYWGQGTQVTVAS
  polyreactivity (PSR sort gate): high polyreactivity

## QVQLVESGGGLVQAGGSLRLISAASGSIFERYAMGWYRQAPGKERELVAAITWTGGSTYYADSVKGRFTISRDNAKNTVYLQMNSLKPEDTAVYYCAADYLYPLWGWYDYWGQGTQVTVSS
  polyreactivity (PSR sort gate): low polyreactivity

## QVQLVESGGGLVQAGGSLRLSCAASGITLYRYVMGWYRQAPGKERELVADISGRGTSTYYADSVKGRFTISRDNAKNTVYLQMNSLKPEDTAVYYCNAEYTKTGALVIPYTYYYAEDYWGQGTQVTVSS
  polyreactivity (PSR sort gate): low polyreactivity

## QVQLVESGGGLVQAGGSLRLSCAASGFIFGYNVMGWYRQAPGKERELVAAISSRGSSTYYADSVKGRFTISRDDVKNTVYLQMNSLKPEDTAVYYCAAYSSYNSWVSRRYGHDYWGQGTQVTVSS
  polyreactivity (PSR sort gate): high polyreactivity

## QVQLVESGGGLVQAGGSLRLSCAASGYTFPYYTMGWYRQAPGKERELVAAISSGGRTKYADSVKGRFTISRDNANNSVYVQMNSLKPEDTAVYYCSARSSYSFAFFWPAYNYWGQGTQVTVSS
  polyreactivity (PSR sort gate): high polyreactivity

## QVQLVESGRGLVQAGGTLRLSCAPYGRTFYPIAMAWYRQAPGKDRELVAAISYSGGSTYYADSVKGRFTISRDNAKNTVYLQMNRLKPEDTAVYDCAAAFSRDSRDLWGQGTQVTVSS
  polyreactivity (PSR sort gate): low polyreactivity

## QVQLVESGGGLVQAGGSLRLSCAASGLTCSRYAMGWYRQAPGKERELVASISQGGGSTYYADSVKGRFTISRDNAKNTVYLQMTSLKPEDTAVYYCAASWYYSLQRYGYWGQGTQVTVSS
  polyreactivity (PSR sort gate): high polyreactivity

## QVQLVESGGGLVQAGGSLRLSCAASGSIFSRYAMGWYRQAPGKERELVAAISGRGGGTYYADSVKGRFTISRDNAKNTVYLQKNSMKPEDTAVYYCAAQLGRPAYSRVSWRAYYYWGQGTQVTVSS
  polyreactivity (PSR sort gate): low polyreactivity

## QVQLVESGGGLVQAGGSLRLSCAASGIIFYAYDMGWYRQAPGKERELVAAITFSAVSTYYADSVKGRFTISRDNAKNTVYLQMNSLKPEDTAVYYCAAEAYKHGVWDYDYWGQGTQVTVSS
  polyreactivity (PSR sort gate): low polyreactivity

## QVQLVESWGGLVQAGGSLRLSCAASGRIFRGYAMGWYRQAPGKERELVAVISYSGTRTYYADSVKGRFTISRDNAKNTVYLQMNSLKPEDTAVYYCNARANGFKDGYWGQGTQVTVSS
  polyreactivity (PSR sort gate): high polyreactivity

## QVQLVESGGGLVQAGGSLRLSCAASGRIFYAYTMGWYRQAPGKESELVAAIRYGGGSTYYADSVKGRFTISRDNAKNTVYLLMNSLIPEDTAVYYCARDRYNLYSRSYYWGQGTQVTVSS
  polyreactivity (PSR sort gate): low polyreactivity

## QVQLVESGGGLVQAGGSLRLSCAASGIIFDRYAMGWYRQAPGKEREFVAAISRRGGSTYYADSVKGRFTISRDNAKNTVYLQMNSLKPEDTAVYYCAKEIRYYSSVSESDYWGQGTQVTVSS
  polyreactivity (PSR sort gate): high polyreactivity

## QVQLVESGGGLVQAGGSLRLSCAASGSTFLVYAMGWYRPAPGKERELVAAITQIDGSTYNADSVKGRFTISRDNSKNTVYLQRHSLKPEDTAVYYCAARYFWTYEYDYWGQGTQVTVSS
  polyreactivity (PSR sort gate): low polyreactivity

## QVQLVESGGGLVQAGGSLRLSCAASGYTFYVYTMGWYRQAPGKERELVAAISGSGTSTYYADSVKGRFTISRDNAKNTVYFQMNSLKPVDTAVYYCAAEDYSRDVYSYDYWGQGTQVTVSS
  polyreactivity (PSR sort gate): low polyreactivity

## QVHLVESGGGLVQAGGSLRLICAASGRTFWYYAMGWYRQAPGKERELVAAITSGGSTNYADSVKRRFTISRDNAKNTVYLQMNILKPEDTAVYYCATDNPVFEYDYCGQGTQVTVSS
  polyreactivity (PSR sort gate): low polyreactivity

## QVQLVESGGGLVQAGGSLRLSCAASGRILYRYVMGRYRQAPGKERELVAGISWSGGSTYYADSVKGRFTISSDTAKNTVYLQMNSLKPEVTAVYYCASTFRTYAPRPYQGDYWGQGTQVTVSS
  polyreactivity (PSR sort gate): low polyreactivity

## QVQLVESGGGLVQAGGSLRLTCAASGINCVWYAMGWYRQAPGKERELVAAIRSGGITNYADSVKGRFTISRDNAQNTVYLQMNSLKPEDTAVYYCAAPYRTDTGDDYWGQGTQVTLSS
  polyreactivity (PSR sort gate): low polyreactivity

## QVQLVESGGGLVQAGGSLRLSCAASGSIFAAYTMGWYRQAPGKERELVATISSGGSTYYADSVKGRFTISRDNAKNTVYLQMNSLKPEDTAVYYCAAVIGNWQYQYYYWGQGTQVTVSS
  polyreactivity (PSR sort gate): low polyreactivity

## QDQLVESGGGLVQAGGSLRLSCAASGYIFRIYAMGWYRQAPGKERELVATITNGGSTHYADSVKGRFTISRDNAKNTVYLQMNSLKPEDTAVYYCAADLLYSEYDYWGQGTQVTVSS
  polyreactivity (PSR sort gate): high polyreactivity

## QVQLVESGGGLVQAGGSLRLSCAAAGFTFSVNAMGWYRQAPGKERELVAAISSRGSITYYADSVKGRFTISRDNAKNTVYLQMNSLKPEDTAVYYCNAYKYKSPGDYWGQGTQVTVSS
  polyreactivity (PSR sort gate): high polyreactivity

## QVQLVESGGGLVQAGGSLRLSCAASGRTLRHYAMGWYRQAPGKERELVAAISSTGSSTYYADSVKGRFTISRDNAKITVYLQMNSLKPEDTAVYYCAADKYTWDAGGVVYWGQGTQVTVSS
  polyreactivity (PSR sort gate): low polyreactivity

## QGQLVESGGGLVQAGGSLRLSCAASGSTFPSYAMGWYRQAPGKERELVAAISRRSSRTYYADSVKGRFTISRDNAKNTVYLQMNSLKPEDTAVYYCNADAGRHSDEYGYDYWGQGTEVTVSS
  polyreactivity (PSR sort gate): high polyreactivity

## QVKLVESGGGLVQAGGILRLSCAASGLIFTTYAMGWYRQAPGKERELVAVISGCGSTSYADSVKGRFTISRDNAKNTVYLQMNSLKPEDTAVYYCAADKPVSQGPIPGYTNDYWGQGTQVTVSS
  polyreactivity (PSR sort gate): low polyreactivity

## QVQLEESGGGLVQAGGSLRLSCAAYGRTFPNYAMGRYRQAPGKEREMVADISSSGVSTYYADSVKGRFTISRDNAKNTVYLKMNSLKPEDTAVYYCAARSWWFQRGEYWGQGTQVTVSS
  polyreactivity (PSR sort gate): high polyreactivity

## QVQLVESGGGLVQAGGSLRLSCAASGRTFTTYAMGWYRQAPGKARELVAAISDTGGITYYADSVKGRFTISRDNAKNTVYLQMISLKPEDTAVYYCNAESYGGDYDYWGQGTQVTVSS
  polyreactivity (PSR sort gate): low polyreactivity

## QVQLVESGGGLVQAGGSLRLSCAASGSIFSSYAMGWYIQAPGKEMELVAGITWGGASTYYADSVKGRFTISRDNAKNTVYLQMNSLKPEDTAVYYCNRRAWVYYAPFTVIVLYGRDYWGQGTQVTVSS
  polyreactivity (PSR sort gate): low polyreactivity

## QVQLVESGGGLVQAGGSLRLSCAASGNIFVNYAMGWYRQAPGKERELVASINYNGGNTYYADSVKGRFTISRDNAKNTVYLQMNSLKPEDTAVYYCAKDGGGLLRWYTDEYDYWGQGTQVTVSS
  polyreactivity (PSR sort gate): low polyreactivity

## QVHLVESGGGLVQAGGSLRLSCAASGSTFSGYAMGWDRQAPGKDREFVATITSTGSTNYADSVKGRFTSSRDNAKNTVYLQMNSLNPEENAVYYCHSRYWFVERYFLHYASVRYDYWGQGTKVTVSS
  polyreactivity (PSR sort gate): low polyreactivity

## QVQLVESGGGLVKAGGSLRLSCAASGFTFYTYTMGWYRQAPGKERELVAVISRSGGSTYYADSVKGRFTISRDNAKNTVYLQMNSLKPEDTAVYYCNAGYWRFIDSYDYWGQGTQVTVSS
  polyreactivity (PSR sort gate): high polyreactivity
